For data set [1], the system named is RBP10 fragment with no residues C-terminal to the RRM (Trypanosoma brucei). The experiment in a line: EMSA. The settings on record: binding buffer for gel shifts not in material (only protein buffers: elution 50 mM NaH2PO4, 300 mM NaCl, 250 mM imidazole, pH 8.0); sometimes dialyzed to 10 mM …; scale: affinity relative to P1.
Data set [2] relates to RBP10 fragment with only 10 residues C-terminal to the RRM (Trypanosoma brucei). In words: EMSA. Conditions: binding buffer for gel shifts not in material (only protein buffers: elution 50 mM NaH2PO4, 300 mM NaCl, 250 mM imidazole, pH 8.0); sometimes dialyzed to 10 mM …; scale: affinity relative to P1.

On to probe with two copies of UA(U)6, for which the binding signal in data set [1] and in data set [2] was below 0.1 in each case.

As for “probe with two copies of UACUCUCU (mutant)”, the binding signal in data set [1] and in data set [2] was below 0.1 in each case.

The record behind these values is publication PMC9284731.
